A protein production outcome set (Wang et al. 2014)

Assay: label from the status in PepcDB records
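Also: failed if final PepcDB status was selected cloned or expressed and not failed if soluble or beyond.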

Sequence: MDTPNKDDSIIRFSVSLQQNLLDELDNRIIKNGYSSRSELVRDMIREKLVEDNWAEDNPNDESKIAVLVVIYDHHQRELNQRMIDIQHASGTHVLCTTHIHMDEHNCLETIILQGNSFEIQRLQLEIGGLRGVKFAKLTKASSFEYNE
- protein production: failed

Sequence: MDTQSLVPLSTLKQGEKAYVVDLELNGLLRRRVLDLGIVPGTSLQCVGTAPAGDPIAYLVRGTVIALRSEDARSIRVNSALV
- protein production: failed

Sequence: MDTSNATSVVNVSASSSTSTIYDLGNMSKDEVVKLFEELGVFQAAILMFSYMYQAQSNLSIAKFADMNEASKASTTAQKMANLVDAKIADVQSSTDKNAKAKLPQDVIDYINDPRNDISVTGIRDLSGDLSAGDLQTVKAAISAKANNLTTVVNNSQLEIQQMSNTLNLLTSARSDVQSLQYRTISAISLGK
- protein production: failed

Sequence: MDTVDLRHLDENLHHARTQFEVWARGRLSNLEEVQRTWQETTARVSRETETLVQRRTQFEAAAARLQERLEAEREELDALERGIAQLEARAAALPVRQQELEQEIAERRQEFERRRALLNACEEARRTRLLHLQKALVWYRDRLGLRFQRVGAASATEAGRVDGKVRVIFRHIDSRAPDREFAFTVYVDEDADLFRVEDCVPDIDVMKPTAGAANVRLAQMVETLNRTNDFGAFVAQMRRRFKAWVQMESTDQLAGRQA
- protein production: failed

Sequence: MDTWKVGPVELKSRLILGSGKYEDFGVMREAIAAAKAEVVTVSVRRVELKAPGHVGLLEALEGVRLLPNTAGARTAEEAVRLARLGRLLTGERWVKLEVIPDPTYLLPDPLETLKAAERLIEEDFLVLPYMGPDLVLAKRLAALGTATVMPLAAPIGSGWGVRTRALLELFAREKASLPPVVVDAGLGLPSHAAEVMELGLDAVLVNTAIAEAQDPPAMAEAFRLAVEAGRKAYLAGPMRPREAASPSSPVEGVPFTPTGPRPGRGPQ
- protein production: not failed

Sequence: MDTYMIDAELEHYLGERLSSSSRQALCRLHVRACARFHGAELEEYRRRLRAHARAYARLGRMLQSPFRHMETALFLSSFTLFVAGIIMVVNGDLSALVACGTAAGLVGMIECARKLAGHWHRYGVMEAVYRELEEQLANG
- protein production: failed

Sequence: MDVAGEKQQRKGEAIARIEAEKNAYTVAQLADEYFERMIAGRWKHPNIVRSRIEKDIKPAIGSLKVEDVKPRHIDDVLKAVMKRGAPSIANDTLRWLKRMFNYAIKRHIIEYNPAAAFLEHHHHHH
- protein production: failed

Sequence: MDVEPGKFYKGVVTRIEKYGAFINLNEQVRGLLRPRDMISLRLENLNVGDEIIVQAIDVRPEKREIDFKYIPLTTYDLVKYEKEVPLSQIKDISQNLEHHHHHH
- protein production: not failed

Sequence: MDVKTAAALHRLRLISLPEAISFPILLVCSVLKRTTEFDAVFPMGLIHGLLFTFYVIFWADAWNRAKWSKKKAAGYFLLAIPPFGGLFAERKLKREAEDAVIASRARREGTVNA
- protein production: failed

Sequence: MDVTIERVNDFDGYNWLPLLAKSSQEGFQLVERMLRNRREESFQEDGEAMFVALSTTNQVLACGGYMKQSGQARTGRIRHVYVLPEARSHGIGTALLEKIMSEAFLTYDRLVLYSEQADPFYQGLGFQLVSGEKITHTLDKTAFADSNR
- protein production: not failed

Sequence: MDVVDSLLVNGSNITPPCELGLENETLFCLDQPRPSKEWQPAVQILLYSLIFLLSVLGNTLVITVLIRNKRMRTVTNIFLLSLAVSDLMLCLFCMPFNLIPNLLKDFIFGSAVCKTTTYFMGTSVSVSTFNLVAISLERYGAICKPLQSRVWQTKSHALKVIAATWCLSFTIMTPYPIYSNLVPFTKNNNQTANMCRFLLPNDVMQQSWHTFLLLILFLIPGIVMMVAYGLISLELYQGIKFEASQKKSAKERKPSTTSSGKYEDSDGCYLQKTRPPRKLELRQLSTGSSSRANRIRSNSSAANLMAKKRVIRMLIVIVVLFFLCWMPIFSANAWRAYDTASAERRLSGTPISFILLLSYTSSCVNPIIYCFMNKRFRLGFMATFPCCPNPGPPGARGEVGEEEEGGTTGASLSRFSYSHMSASVPPQ
- protein production: failed

Sequence: MDWFSWLSRTNLEASLIYEYGLSFSNNELEYEDIAYFNHEFLQSMGISIAKHRLEILKLARRDRKPSPLTARSIFRVLIAIKKTGKCFSEHVRAWIRREESSRALVVVSRSTSSSGNGRWKSARKKRLVMPSNGNGVKEERLLLTNGTPCRLDSFSNPKVSSGYEDDDNHWGNKDVEEKIKWDSMFQNLKPT
- protein production: failed

Sequence: MDWGTELWDQFEVLERHTQWGLDLLDRYVKFVKERTEVEQAYAKQLRSLVKKYLPKRPAKDDPESKFSQQQSFVQILQEVNDFAGQRELVAENLSVRVCLELTKYSQEMKQERKMHFQEGRRAQQQLENGFKQLENSKRKFERDCREAEKAAQTAERLDQDINATKADVEKAKQQAHLRSHMAEESKNEYAAQLQRFNRDQAHFYFSQMPQIFDKLQDMDERRATRLGAGYGLLSEAELEVVPIIAKCLEGMKVAANAVDPKNDSHVLIELHKSGFARPGDVEFEDFSQPMNRAPSDSSLGTPSDGRPELRGPGRSRTKRWPFGKKNKTVVTEDFSHLPPEQQRKRLQQQLEERSRELQKEVGQREALKKMKDVYEKTPQMGDSASLEPQIAETLSNIERLKLEVQKYEAWLAEAESRVLSNRGDSLSRHARPPDPPASAPPDSSSNSASQDTKESSEEPPSEESQDTPIYTEFDEDFEEEPTSPIGHCVAIYHFEGSSEGTISMAEGEDLSLMEEDKGDGWTRVRRKEGGEGYVPTSYLRVTLN
- protein production: not failed

Sequence: MDWTMISGSRDESLHAARDYWRRLNESECFDIEGIEAPPGAIALIPYDCQLPNSFHPLPLWVKLYASAGLHRFNMLEVLVNERSVGKLNIIVPIARPKGVTTNERFIPCDCFSVDDKLPQWPSHDSFNDRKRFYSVKESELQNNDWINLYLELVLCAIQKVRISDSDLSKLKIVKAVIETKEDMVPPNERLNAKTAVVYITFKGLANARIAAGEHYERKAIIRRIFNEHTGHLSLLGDLIGEKKFVNIDPVTYFNSPAYLEDITHELPPESPWMDILAGTGSMDQID
- protein production: failed

Sequence: MDYPDLAPRARSWAPHLLGVLRIVAAFLFLQFGTAKLFAFPGPVMPGGGTAPLASLAGIAGAIEAFGGALLLVGLFSRPVAFLLSGEMAVAYFYGHAPQGFWPVLNQGTPAALFAFVFLYLAAAGPGRFSLDGLRGKDAP
- protein production: failed

Sequence: MDYSQFLYMKEELSLIAVILILFVVDLLTCPDQKGATPKVNVRSLTLPAVILMTLHTVINLFPGTPAEAFGGMYQYTPMQTIIKAVLNVGTIIVLLMAHEWLKREDTRIKQGEFYVLTLSTLLGMYFMISAGHFLMFFIGLEMASIPMAALVAFDKYRHHSAEAGAKYILTALFSSALLLFGLSMIYGTSGTLYFNDLPGHITGNMLQIMAFVFFFAGMGFKISLVPFHLWTADVYEGAPTAVTSYLSVISKGSAAFVLMTILMKVFAPMVAQWQEVLFWVTIASITIANLFAIRQQNLKRFMAFSAISQAGYIMLGVIGGSEMGMTALVYYVLVYLAANLGVFAVISIVEQRSNKVEIDDYNGLYKTNPKLAFIMTLALFSLAGIPPFAGFFSKFFIFMAAFNSGFHLLVFIALINTVVSLYYYLLIVKAMYINPNEEPIPTFRSDNYTKVSLVLCTLGIIALGIASCIYQGIDKFSFGMGM
- protein production: failed

Sequence: MEADRGRNNKVRCAVVDTNVLMYVYLNKADVVGQLREFGFSRFLITASVKRELEKLEMSLRGKEKVAARFALKLLEHFEVVETESEGDPSLIEAAEKYGCILITNDKELKRKAKQRGIPVGYLKEDKRVFVELLD
- protein production: not failed

Sequence: MEALAELIKRKVPNEGLIIEVGVGFYLKVAKKLKEYGFNVVVVDINQEAVKNAIKERIPGFVDDVFNPNLKIYLKARAIYSIRPNPEIMMALLTLAKKVKVPLYIVPLSGDVPPREMKLINYKGISVYVWEP
- protein production: failed

Sequence: MEALGPGGDRASPASSTSSLDLWHLSMRADSAYSSFSAASGGPEPRTQSPGTDLLPYLDWDYVRVVWGGPGPAPPDAALCTSPRPRPAVAARSGPQPTEVPGTPGPLNRQATPLLYALAAEAEAAAQAAEPPSPPASRAAYRQRLQGAQRRVLRETSFQRKELRMSLPARLRPTVPARPPATHPRSASLSHPGGEGEPARSRAPAPGTAGRGPLANQQRKWCFSEPGKLDRVGRGGGPARECLGEACSSSGLPGPEPLEFQHPALAKFEDHEVGWLPETQPQGSMNLDSGSLKLGDAFRPASRSRSASGEVLGSWGGSGGTIPIVQAVPQGAETPRPLFQTKLSRFLPQKEAAVMYPAELPQSSPADSEQRVSETCIVPAWLPSLPDEVFLEEAPLVRMRSPPDPHASQGPPASVHASDQPYGTGLGQRTGQVTVPTEYPLHECPGTAGADDCWQGVNGSVGISRPTSHTPTGTANDNIPTIDPTGLTTNPPTAAESDLLKPVPADALGLSGNDTPGPSHNTALARGTGQPGSRPTWPSQCLEELVQELARLDPSLCDPLASQPSPEPPLGLLDGLIPLAEVRAAMRPACGEAGEEAASTFEPGSYQFSFTQLLPAPREETRLENPATHPVLDQPCGQGLPAPNNSIQGKKVELAARLQKMLQDLHTEQERLQGEAQAWARRQAALEAAVRQACAPQELERFSRFMADLERVLGLLLLLGSRLARVRRALARAASDSDPDEQASLLQRLRLLQRQEEDAKELKEHVARRERAVREVLVRALPVEELRVYCALLAGKAAVLAQQRNLDERIRLLQDQLDAIRDDLGHHAPSPSPARPPGTCPPVQPPFPLLLT
- protein production: failed

Sequence: MEALVVVHKVASEGGRRPKTTVSDESGSHSREKGKSFQVKDSPENNYATGKVDSLERSHFSSSYNQERRQSEEQRR
- protein production: failed

Sequence: MEASRFIEIGLLTRPHGLKGEVCVDYYADSPFLLEGTVYLKAGRAAPRPVKVQSMRMHKGRPLVIFEGVNDRTAAELLRGHVMLVPEDTLPELDEDEVYLFELEGISVVIDESGEHLGVIERIDTDAYQEIWVIRTPQGKEVLFPAAAPFVLDIDLDSRTARIAPPPGLLDIYLSD
- protein production: failed

Sequence: MEATGLITEYNPFHNGHLYHLKKAQELTKADVTIVLMSGNWVQRGLPAITDKWKRAQAAIDAGADLVFELPFYYAVQAGEIFAQGAVRLLSDLQVSSIICGSEHADIDFINLAAHEPDISGNSNFDKKNRTFASNYAAALEEKTGFYLENANDILAFSYAKAILNQNLTEKIKLRTISRVSADYHDQFLNDGEIASATAIRKALSEGQNVDSYTP
- protein production: failed

Sequence: MEATNLPQPSAPADLGALQRPSYFRRLGPFDWLFAALLALGAGYAFSRYGAYMDGYERGILVAAVPAFAWLGWTWKPVRTLMIGLAVLSLFAIAQYSGPNGPELARADRVFFLKYFLASQSAILWMSALIFLSTLFFWAGLAARWPAGGAIGSKLCWAAVVLGLTGMLVRWYESYLVGADIGHIPISNLYEVFILFTLITSLFYLYYEQRYRTRALGPFVMLVVSAAVGFLLWYTVSRGAQEIQPLVPALQSWWMKIHVPANFIGYGTFALAAMVGAAYLLKEHGVLADRLPSLEVLDDVMYKAITVGFAFFTIATILGALWAADAWGGYWSWDPKETWALIVWLNYAAWLHMRLMKGLRGRMAAWWALVGLLVTTFAFLGVNMFLSGLHSYGEL
- protein production: failed

Sequence: MEAVDLAFANYAERFARSCKGDGWRRLVERAIRLYLTPVLGKKALPAINRTDVVSVFDNMPADQVANRRNVFAVLRRLFRWAVSRGDLDRSLEHHHHHH
- protein production: failed

Sequence: MEAVTGYVKRKDLGRAVVQTDLGNPKAWEIRLTILTDEVLSENQKLATQKIDPSCAVDVSIGHGASDSPRGSSLAINEVRCECSSGISESDLETRGLAMIIDFVMRVASLERSVMNKRDLRFARVEKRFPKGKTKLKA
- protein production: failed
